*1 amine or outer side, *2 acyl side, *3 side chain or, on linkers, in order; H or OH if unused. Where no end group is shown, it is not given here. Side-chain parts run from the residue outwards. The star is where a group is joined. C18 diacid = O=C(O)CCCCCCCCCCCCCCCCC(=O)*; γGlu = O=C(O)[C@H](CCC(=O)[*:2])N[*:1]; AEEA = NCCOCCOCC(=O)O
T1: human GIP receptor (human, UniProt P48546 22-466)
T1 sequence (looked up): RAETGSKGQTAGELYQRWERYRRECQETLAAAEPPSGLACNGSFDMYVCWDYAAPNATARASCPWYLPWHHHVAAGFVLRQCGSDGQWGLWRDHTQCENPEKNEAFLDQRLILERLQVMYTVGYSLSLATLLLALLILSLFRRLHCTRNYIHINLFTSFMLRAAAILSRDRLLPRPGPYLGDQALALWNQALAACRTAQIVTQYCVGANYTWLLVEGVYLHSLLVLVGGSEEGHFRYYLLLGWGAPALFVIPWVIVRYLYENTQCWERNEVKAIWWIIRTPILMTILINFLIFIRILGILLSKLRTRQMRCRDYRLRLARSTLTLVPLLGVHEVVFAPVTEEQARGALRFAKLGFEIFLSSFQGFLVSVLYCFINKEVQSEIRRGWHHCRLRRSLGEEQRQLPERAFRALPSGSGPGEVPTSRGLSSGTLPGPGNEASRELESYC

B1: AT593 (peptide)
peptide: EGTFISDYSIAMDKIK([AEEA-AEEA-γGlu-C18 diacid])QQDFVNWLLAQPSSGAPPPS-NH2
modifications: N-terminus assumed
SMILES: CC[C@H](C)[C@H](NC(=O)[C@H](CO)NC(=O)[C@H](Cc1ccc(O)cc1)NC(=O)[C@H](CC(=O)O)NC(=O)[C@H](CO)NC(=O)[C@@H](NC(=O)[C@H](Cc1ccccc1)NC(=O)[C@@H](NC(=O)CNC(=O)[C@@H](N)CCC(=O)O)[C@@H](C)O)[C@@H](C)CC)C(=O)N[C@@H](C)C(=O)N[C@@H](CCSC)C(=O)N[C@@H](CC(=O)O)C(=O)N[C@@H](CCCCN)C(=O)N[C@H](C(=O)N[C@@H](CCCCNC(=O)COCCOCCNC(=O)COCCOCCNC(=O)CC[C@H](NC(=O)CCCCCCCCCCCCCCCCC(=O)O)C(=O)O)C(=O)N[C@@H](CCC(N)=O)C(=O)N[C@@H](CCC(N)=O)C(=O)N[C@@H](CC(=O)O)C(=O)N[C@@H](Cc1ccccc1)C(=O)N[C@H](C(=O)N[C@@H](CC(N)=O)C(=O)N[C@@H](Cc1c[nH]c2ccccc12)C(=O)N[C@@H](CC(C)C)C(=O)N[C@@H](CC(C)C)C(=O)N[C@@H](C)C(=O)N[C@@H](CCC(N)=O)C(=O)N1CCC[C@H]1C(=O)N[C@@H](CO)C(=O)N[C@@H](CO)C(=O)NCC(=O)N[C@@H](C)C(=O)N1CCC[C@H]1C(=O)N1CCC[C@H]1C(=O)N1CCC[C@H]1C(=O)N[C@@H](CO)C(N)=O)C(C)C)[C@@H](C)CC
B2: AT594 (peptide)
peptide: EGTFISDYSIAMDKIHQK([AEEA-AEEA-γGlu-C18 diacid])DFVNWLLAQKPSSGAPPPS-NH2
modifications: N-terminus assumed
SMILES: CC[C@H](C)[C@H](NC(=O)[C@H](CO)NC(=O)[C@H](Cc1ccc(O)cc1)NC(=O)[C@H](CC(=O)O)NC(=O)[C@H](CO)NC(=O)[C@@H](NC(=O)[C@H](Cc1ccccc1)NC(=O)[C@@H](NC(=O)CNC(=O)[C@@H](N)CCC(=O)O)[C@@H](C)O)[C@@H](C)CC)C(=O)N[C@@H](C)C(=O)N[C@@H](CCSC)C(=O)N[C@@H](CC(=O)O)C(=O)N[C@@H](CCCCN)C(=O)N[C@H](C(=O)N[C@@H](Cc1c[nH]cn1)C(=O)N[C@@H](CCC(N)=O)C(=O)N[C@@H](CCCCNC(=O)COCCOCCNC(=O)COCCOCCNC(=O)CC[C@H](NC(=O)CCCCCCCCCCCCCCCCC(=O)O)C(=O)O)C(=O)N[C@@H](CC(=O)O)C(=O)N[C@@H](Cc1ccccc1)C(=O)N[C@H](C(=O)N[C@@H](CC(N)=O)C(=O)N[C@@H](Cc1c[nH]c2ccccc12)C(=O)N[C@@H](CC(C)C)C(=O)N[C@@H](CC(C)C)C(=O)N[C@@H](C)C(=O)N[C@@H](CCC(N)=O)C(=O)N[C@@H](CCCCN)C(=O)N1CCC[C@H]1C(=O)N[C@@H](CO)C(=O)N[C@@H](CO)C(=O)NCC(=O)N[C@@H](C)C(=O)N1CCC[C@H]1C(=O)N1CCC[C@H]1C(=O)N1CCC[C@H]1C(=O)N[C@@H](CO)C(N)=O)C(C)C)[C@@H](C)CC
B3: AT592 (peptide)
peptide: EGTFISDYSIAMDKIK([AEEA-AEEA-γGlu-C18 diacid])QQDFVNWLLAGGPSSGAPPPS-OH
modifications: N-terminus assumed
SMILES: CC[C@H](C)[C@H](NC(=O)[C@H](CO)NC(=O)[C@H](Cc1ccc(O)cc1)NC(=O)[C@H](CC(=O)O)NC(=O)[C@H](CO)NC(=O)[C@@H](NC(=O)[C@H](Cc1ccccc1)NC(=O)[C@@H](NC(=O)CNC(=O)[C@@H](N)CCC(=O)O)[C@@H](C)O)[C@@H](C)CC)C(=O)N[C@@H](C)C(=O)N[C@@H](CCSC)C(=O)N[C@@H](CC(=O)O)C(=O)N[C@@H](CCCCN)C(=O)N[C@H](C(=O)N[C@@H](CCCCNC(=O)COCCOCCNC(=O)COCCOCCNC(=O)CC[C@H](NC(=O)CCCCCCCCCCCCCCCCC(=O)O)C(=O)O)C(=O)N[C@@H](CCC(N)=O)C(=O)N[C@@H](CCC(N)=O)C(=O)N[C@@H](CC(=O)O)C(=O)N[C@@H](Cc1ccccc1)C(=O)N[C@H](C(=O)N[C@@H](CC(N)=O)C(=O)N[C@@H](Cc1c[nH]c2ccccc12)C(=O)N[C@@H](CC(C)C)C(=O)N[C@@H](CC(C)C)C(=O)N[C@@H](C)C(=O)NCC(=O)NCC(=O)N1CCC[C@H]1C(=O)N[C@@H](CO)C(=O)N[C@@H](CO)C(=O)NCC(=O)N[C@@H](C)C(=O)N1CCC[C@H]1C(=O)N1CCC[C@H]1C(=O)N1CCC[C@H]1C(=O)N[C@@H](CO)C(=O)O)C(C)C)[C@@H](C)CC
B4: AT590 (peptide)
peptide: EGTFISDYSIAMDKIK([AEEA-AEEA-γGlu-C18 diacid])QQDFVNWLLAQGPSSGAPPPS-NH2
modifications: N-terminus assumed
SMILES: CC[C@H](C)[C@H](NC(=O)[C@H](CO)NC(=O)[C@H](Cc1ccc(O)cc1)NC(=O)[C@H](CC(=O)O)NC(=O)[C@H](CO)NC(=O)[C@@H](NC(=O)[C@H](Cc1ccccc1)NC(=O)[C@@H](NC(=O)CNC(=O)[C@@H](N)CCC(=O)O)[C@@H](C)O)[C@@H](C)CC)C(=O)N[C@@H](C)C(=O)N[C@@H](CCSC)C(=O)N[C@@H](CC(=O)O)C(=O)N[C@@H](CCCCN)C(=O)N[C@H](C(=O)N[C@@H](CCCCNC(=O)COCCOCCNC(=O)COCCOCCNC(=O)CC[C@H](NC(=O)CCCCCCCCCCCCCCCCC(=O)O)C(=O)O)C(=O)N[C@@H](CCC(N)=O)C(=O)N[C@@H](CCC(N)=O)C(=O)N[C@@H](CC(=O)O)C(=O)N[C@@H](Cc1ccccc1)C(=O)N[C@H](C(=O)N[C@@H](CC(N)=O)C(=O)N[C@@H](Cc1c[nH]c2ccccc12)C(=O)N[C@@H](CC(C)C)C(=O)N[C@@H](CC(C)C)C(=O)N[C@@H](C)C(=O)N[C@@H](CCC(N)=O)C(=O)NCC(=O)N1CCC[C@H]1C(=O)N[C@@H](CO)C(=O)N[C@@H](CO)C(=O)NCC(=O)N[C@@H](C)C(=O)N1CCC[C@H]1C(=O)N1CCC[C@H]1C(=O)N1CCC[C@H]1C(=O)N[C@@H](CO)C(N)=O)C(C)C)[C@@H](C)CC
B5: AT591 (peptide)
peptide: EGTFISDYSIAMDKIK([AEEA-AEEA-γGlu-C18 diacid])QQDFVNWLLAGGPSSGAPPPS-NH2
modifications: N-terminus assumed
SMILES: CC[C@H](C)[C@H](NC(=O)[C@H](CO)NC(=O)[C@H](Cc1ccc(O)cc1)NC(=O)[C@H](CC(=O)O)NC(=O)[C@H](CO)NC(=O)[C@@H](NC(=O)[C@H](Cc1ccccc1)NC(=O)[C@@H](NC(=O)CNC(=O)[C@@H](N)CCC(=O)O)[C@@H](C)O)[C@@H](C)CC)C(=O)N[C@@H](C)C(=O)N[C@@H](CCSC)C(=O)N[C@@H](CC(=O)O)C(=O)N[C@@H](CCCCN)C(=O)N[C@H](C(=O)N[C@@H](CCCCNC(=O)COCCOCCNC(=O)COCCOCCNC(=O)CC[C@H](NC(=O)CCCCCCCCCCCCCCCCC(=O)O)C(=O)O)C(=O)N[C@@H](CCC(N)=O)C(=O)N[C@@H](CCC(N)=O)C(=O)N[C@@H](CC(=O)O)C(=O)N[C@@H](Cc1ccccc1)C(=O)N[C@H](C(=O)N[C@@H](CC(N)=O)C(=O)N[C@@H](Cc1c[nH]c2ccccc12)C(=O)N[C@@H](CC(C)C)C(=O)N[C@@H](CC(C)C)C(=O)N[C@@H](C)C(=O)NCC(=O)NCC(=O)N1CCC[C@H]1C(=O)N[C@@H](CO)C(=O)N[C@@H](CO)C(=O)NCC(=O)N[C@@H](C)C(=O)N1CCC[C@H]1C(=O)N1CCC[C@H]1C(=O)N1CCC[C@H]1C(=O)N[C@@H](CO)C(N)=O)C(C)C)[C@@H](C)CC
B6: AT588 (peptide)
peptide: EGTFISDYSIAMDKIK([AEEA-AEEA-γGlu-C18 diacid])QQDFVNWLLAQKGPSSGAPPPS-NH2
modifications: N-terminus assumed
SMILES: CC[C@H](C)[C@H](NC(=O)[C@H](CO)NC(=O)[C@H](Cc1ccc(O)cc1)NC(=O)[C@H](CC(=O)O)NC(=O)[C@H](CO)NC(=O)[C@@H](NC(=O)[C@H](Cc1ccccc1)NC(=O)[C@@H](NC(=O)CNC(=O)[C@@H](N)CCC(=O)O)[C@@H](C)O)[C@@H](C)CC)C(=O)N[C@@H](C)C(=O)N[C@@H](CCSC)C(=O)N[C@@H](CC(=O)O)C(=O)N[C@@H](CCCCN)C(=O)N[C@H](C(=O)N[C@@H](CCCCNC(=O)COCCOCCNC(=O)COCCOCCNC(=O)CC[C@H](NC(=O)CCCCCCCCCCCCCCCCC(=O)O)C(=O)O)C(=O)N[C@@H](CCC(N)=O)C(=O)N[C@@H](CCC(N)=O)C(=O)N[C@@H](CC(=O)O)C(=O)N[C@@H](Cc1ccccc1)C(=O)N[C@H](C(=O)N[C@@H](CC(N)=O)C(=O)N[C@@H](Cc1c[nH]c2ccccc12)C(=O)N[C@@H](CC(C)C)C(=O)N[C@@H](CC(C)C)C(=O)N[C@@H](C)C(=O)N[C@@H](CCC(N)=O)C(=O)N[C@@H](CCCCN)C(=O)NCC(=O)N1CCC[C@H]1C(=O)N[C@@H](CO)C(=O)N[C@@H](CO)C(=O)NCC(=O)N[C@@H](C)C(=O)N1CCC[C@H]1C(=O)N1CCC[C@H]1C(=O)N1CCC[C@H]1C(=O)N[C@@H](CO)C(N)=O)C(C)C)[C@@H](C)CC

These binders were tested against T1, human GIP receptor (assay: cell-based or functional assay).

B1 and B2 are the same in “cAMP agonism % Emax” value: 0% for the first, 0% for the second.

B3 and B4 are the same in “cAMP agonism % Emax” value: 0% for the first, 0% for the second.

B5 and EGTFISDYSIAMDKIK([AEEA-AEEA-γGlu-C18 diacid])QQDFVNWLLAQKGPSSGAPPPS [AT589] are the same in “cAMP agonism % Emax” value: 0% for the first, 0% for the second.

In the case of B6, the “cAMP agonism % Emax” value is reported as 0%.

B1 and B2 are within 1.5-fold of each other in “cAMP antagonism” value: 63.1 nM for the first, 79.4 nM for the second.

B3 and B4 are within 1.5-fold of each other in “cAMP antagonism” value: 6.31 nM for the first, 5.41 nM for the second.

Compared with B5, EGTFISDYSIAMDKIK([AEEA-AEEA-γGlu-C18 diacid])QQDFVNWLLAQKGPSSGAPPPS [AT589] is 3.7-fold lower in “cAMP antagonism” value: 21.5 nM for the first, 5.84 nM for the second.

With B6 the “cAMP antagonism” value was 23.3 nM.

Going from B1 to B2, the “cAMP antagonism % inhib” value falls from 86% to 80%.

Compared with B3, B4 is higher in “cAMP antagonism % inhib” value: 88% for the first, 93% for the second.

First: B5
Second: EGTFISDYSIAMDKIK([AEEA-AEEA-γGlu-C18 diacid])QQDFVNWLLAQKGPSSGAPPPS [AT589]
The “cAMP antagonism % inhib” value of the first is lower: 92% for the first, 95% for the second.

In the case of B6, the “cAMP antagonism % inhib” value is reported as 97%.

B1 and B2 are within 0.2 log units of each other in “cAMP antagonism pIC50” value: 7.2 for the first, 7.1 for the second.

B3 and B4 are within 0.2 log units of each other in “cAMP antagonism pIC50” value: 8.2 for the first, 8.3 for the second.

Going from B5 to EGTFISDYSIAMDKIK([AEEA-AEEA-γGlu-C18 diacid])QQDFVNWLLAQKGPSSGAPPPS [AT589], the “cAMP antagonism pIC50” value rises from 7.7 to 8.2.

In the case of B6, the “cAMP antagonism pIC50” value is reported as 7.6.

From patent US20220298218A1 (ANTAG THERAPEUTICS, published 2022)
